{
  "source": "paper PMC6071076",
  "about": "“Transcriptome-Wide Identification of an Aurone Glycosyltransferase with Glycosidase Activity from Ornithogalum saundersiae” (Genes, 2018)",
  "key": {"[1]": {"substrate": "O=c1cc(-c2ccccc2)oc2c(O)c(O)ccc12", "test": "HPLC glucosylation assay, Lineweaver-Burk", "format": "biochemical, Ornithogalum saundersiae", "conditions": "1 mM UDP-Glc fixed; 7,8-dihydroxyflavone 0-1 mM", "excerpt": "(§1) HPLC glucosylation assay, Lineweaver-Burk on OsUGT1"}, "[2]": {"substrate": "O=C1/C(=C/c2ccc(O)c(O)c2)Oc2cc(O)ccc21", "test": "HPLC glucosylation assay, Lineweaver-Burk", "format": "biochemical, Ornithogalum saundersiae", "conditions": "1 mM UDP-Glc fixed; sulfuretin 0-1 mM", "excerpt": "as §1"}},
  "data": [
    {"protein": "OsUGT1 (Ornithogalum saundersiae) (protein) MEGKKQHVVLFPFMGQGHITPFLLLAELIHEYYPDYTITLVNTPLNIRNLQSSLPPGSKINLKSLPFDASSHGLPPDTENTKAIPFHLFINLFRASETLEPAFERLIAGITEEDGIPPLCIIADNFFSWTLHIARKFGVFHSTFLTSGAYGSALLFSLWKYLPHRNAYSDEFSLPDFPEIRLHHTQLSNILVVADGGDAWSVLLRRLNELCTRSDAVLVNTVKEFEARGLSMLREQLQGPIFPVGPLLCTSASHSMGMDLSDWLDSQPSASVLYVSFGSQNTIRASQMLKLAMALEATSRPFIWVIRPPVGFDVRVQFKSEWLPEGFEDRMRGTKQGFIVHQWAPQVEILSHPSTGAFLSHCGWNSVLESLVHGVPIIGWPLSAEQFYNSKFLMEEVGVCVEAARGNRESSEVKKEEVERAIEIVMDNEEIRRKAKETARVLKSALKEEENNTNVGSSLRGLKEFFQTALSKRVVT", "values": [
      {"measurement": "Km", "setting": "[1]", "value": "713 ± 69", "unit": "µM"},
      {"measurement": "Vmax", "setting": "[1]", "value": 28.3, "unit": "µM/min"},
      {"measurement": "Km", "setting": "[2]", "value": "159 ± 11", "unit": "µM"},
      {"measurement": "Vmax", "setting": "[2]", "value": 3.47, "unit": "µM/min"}
    ]}
  ]
}
